Data on one molecule can be found in patent US20060105442, “Promoters and proteins from Clostridium thermocellum and uses thereof” (published 2006).

In this data set the target is T1, rGlyR3 (CelR3) (Clostridium thermocellum).
T1 chain: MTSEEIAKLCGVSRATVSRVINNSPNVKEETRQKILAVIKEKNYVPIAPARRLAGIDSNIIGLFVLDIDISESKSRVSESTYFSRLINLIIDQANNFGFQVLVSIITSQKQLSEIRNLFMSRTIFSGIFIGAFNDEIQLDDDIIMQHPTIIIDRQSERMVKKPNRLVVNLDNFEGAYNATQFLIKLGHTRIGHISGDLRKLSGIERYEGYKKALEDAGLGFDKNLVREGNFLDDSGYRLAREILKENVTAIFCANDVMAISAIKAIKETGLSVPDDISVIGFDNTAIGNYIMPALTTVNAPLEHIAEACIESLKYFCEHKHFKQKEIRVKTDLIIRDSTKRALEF
The experiment in a line: EMSA; dose dependent; inhibited by laminaribiose. Background: In EMSA bound probe runs differently from free probe, usually more slowly.

B1: 18 bp GlyR3 binding site (dsDNA)
DNA 1: AATGAACGCGCGTACATT
DNA 2: AATGTACGCGCGTTCATT
Regarding B1, the binding result is “binds”.
